In one data set the test system is T1, ECF-FolT2.
T1 construct: four-subunit complex, 10xHis-TEV on EcfA, Strep on FolT2; expressed in E. coli MC1061; purified in DDM, reconstituted in proteoliposomes; ~120 kDa; Energy-coupling factor transporter transmembrane protein EcfT
In words: initial rate of radiolabelled uptake into proteoliposomes. Conditions: 10 mM lumenal Mg-ATP, pH 7.5, 30 °C; labelled compound (3H tracer); read-out: apparent Km. The format is biochemical, Lactobacillus delbrueckii subsp. bulgaricus.

A further data set deals with T2, ECF-PanT.
T2 construct: four-subunit complex, 10xHis-TEV on EcfA, Strep on PanT; expressed in E. coli MC1061; purified in DDM, reconstituted in proteoliposomes; ~120 kDa; Energy-coupling factor transporter transmembrane protein EcfT
The description is as above. The format is biochemical, Lactobacillus delbrueckii subsp. bulgaricus. Conditions: 5 mM lumenal Mg-ATP, pH 7.5, 30 °C; labelled compound (3H tracer); read-out: apparent Km.

Substrate in data set [1]: Nc1ncnc2c1ncn2[C@@H]1O[C@H](COP(=O)(O)OP(=O)(O)OP(=O)(O)O)[C@@H](O)[C@H]1O
In words: initial rate of radiolabelled pantothenate uptake into proteoliposomes at varied lumenal ATP. Conditions: 100 nM pantothenate, Mg2+, pH 7.5, 30 °C, sigmoidal, cooperative. The format is biochemical, Lactobacillus delbrueckii.

Substrate in data set [2]: Nc1ncnc2c1ncn2[C@@H]1O[C@H](COP(=O)(O)OP(=O)(O)OP(=O)(O)O)[C@@H](O)[C@H]1O
Description: initial rate of radiolabelled folate uptake into proteoliposomes at varied lumenal ATP. The format is biochemical, Lactobacillus delbrueckii. The conditions noted are these: 100 nM folate, Mg2+, pH 7.5, 30 °C, sigmoidal, cooperative.

The target in data set [3] is T3, ECF-PanT (whole pantothenate transporter complex: EcfA, EcfA', EcfT, PanT) (Lactobacillus delbrueckii subsp. …).
T3 construct: Four subunits, Mw ~120 kDa as printed for a full ECF-transporter complex; source: SEC in DDM; copies: + + +
T3 chain 1: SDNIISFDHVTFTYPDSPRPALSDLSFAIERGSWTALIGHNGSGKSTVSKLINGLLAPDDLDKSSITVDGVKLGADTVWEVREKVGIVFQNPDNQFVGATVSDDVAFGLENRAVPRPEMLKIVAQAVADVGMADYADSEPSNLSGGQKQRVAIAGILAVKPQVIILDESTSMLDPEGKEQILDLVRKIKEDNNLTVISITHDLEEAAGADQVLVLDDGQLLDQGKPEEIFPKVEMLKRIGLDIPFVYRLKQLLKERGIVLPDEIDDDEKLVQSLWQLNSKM
T3 chain 2: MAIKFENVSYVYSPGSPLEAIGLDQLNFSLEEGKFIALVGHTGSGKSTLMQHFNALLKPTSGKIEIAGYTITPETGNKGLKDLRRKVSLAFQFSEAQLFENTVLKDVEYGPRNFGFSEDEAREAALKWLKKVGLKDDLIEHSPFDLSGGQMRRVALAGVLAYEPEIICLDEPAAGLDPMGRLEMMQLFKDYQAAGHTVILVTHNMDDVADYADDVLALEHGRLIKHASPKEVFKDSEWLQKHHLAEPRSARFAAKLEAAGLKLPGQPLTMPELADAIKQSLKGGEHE
T3 chain 3: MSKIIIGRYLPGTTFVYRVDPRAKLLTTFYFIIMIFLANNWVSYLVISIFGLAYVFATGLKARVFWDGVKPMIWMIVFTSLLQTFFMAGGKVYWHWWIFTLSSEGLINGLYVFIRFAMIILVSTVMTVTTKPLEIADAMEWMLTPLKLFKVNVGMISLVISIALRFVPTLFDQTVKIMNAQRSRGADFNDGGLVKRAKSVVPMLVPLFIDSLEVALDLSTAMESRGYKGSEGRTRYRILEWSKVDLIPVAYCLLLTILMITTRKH
Description: crystal structure; ECF-PanT-Nanobody 81 complex at 5 mg/mL with 5 mM MgATPγS; 70 mM sodium citrate pH 4.5, 22% (v/v) PEG300, 5°C; 2.8 Å, space group P1, two copies of the complex in the asymmetric unit. Conditions: both partners purified.

The values below come from PMC7755397, “In vitro reconstitution of dynamically interacting integral membrane subunits of energy-coupling factor transporters” (eLife, 2020).

Broadly, the Km is the substrate concentration at which the rate is half of its maximum.

With `Nc1nc2ncc(CNc3ccc(C(=O)N[C@@H](CCC(=O)O)C(=O)O)cc3)nc2c(=O)[nH]1` [folate], in the data set with ECF-FolT2, the Km is 0.082 ± 0.02 µM.
On to `CC(C)(CO)[C@@H](O)C(=O)NCCC(=O)O` [pantothenate], for which the Km in the data set with ECF-PanT amounted to 0.046 ± 0.011 µM.

B1: ECF-PanT (Lactobacillus delbrueckii subsp. bulgaricus ATCC 11842 = JCM 1002) (protein)
chain 1: MSDNIISFDHVTFTYPDSPRPALSDLSFAIERGSWTALIGHNGSGKSTVSKLINGLLAPDDLDKSSITVDGVKLGADTVWEVREKVGIVFQNPDNQFVGATVSDDVAFGLENRAVPRPEMLKIVAQAVADVGMADYADSEPSNLSGGQKQRVAIAGILAVKPQVIILDESTSMLDPEGKEQILDLVRKIKEDNNLTVISITHDLEEAAGADQVLVLDDGQLLDQGKPEEIFPKVEMLKRIGLDIPFVYRLKQLLKERGIVLPDEIDDDEKLVQSLWQLNSKM
chain 2: T3 chain 2
notes: with Energy-coupling factor transporter transmembrane protein EcfT; Pantothenate ECF transporter S component PanT
For B1, in data set [1], the Km was 5600 ± 1000 µM.

B2: ECF-FolT2 (Lactobacillus delbrueckii subsp. bulgaricus ATCC 11842 = JCM 1002) (protein)
chain 1: B1 chain 1
chain 2: T3 chain 2
notes: with Energy-coupling factor transporter transmembrane protein EcfT; Folate ECF transporter S component FolT2
For B2, in data set [2], the Km amounted to 5600 ± 1700 µM.

B3: nanobody CA14381 (Nb81) (VHH)
VHH: QVQLVESGGGLVQPGGSLRLSCTASGFTLDDYAIGWFRQAPGKEREGISCISRSGSSTTYADSVKGRFTISRDRAENTVYLQMNSLKPEDTADYYCAATPVWYWSCAVKVGPYDYWGQGTQVTVSS
notes: the nanobody chain of PDB 6ZG3 (solved here); Llama (Lama glama) nanobody selected by phage display against ECF-PanT; Cloned in a Golden Gate variant of pMESy4 (GenBank KF415192); also called nanobody 81; Nanobody 81; source: E. coli WK6 periplasm, purified (Ni-Sepharose, desalting)
Take B3: in data set [3], the binding result is “binds”.
